Series [1] has as its target T1, UGT88C13 (TraesCS2B01G012000) (Triticum aestivum, UniProt A0A3B6BZ82).
T1 construct: gene LOC123043080; also cloned in pGEX-6p-1 (GST)
T1 sequence (A0A3B6BZ82 1-489): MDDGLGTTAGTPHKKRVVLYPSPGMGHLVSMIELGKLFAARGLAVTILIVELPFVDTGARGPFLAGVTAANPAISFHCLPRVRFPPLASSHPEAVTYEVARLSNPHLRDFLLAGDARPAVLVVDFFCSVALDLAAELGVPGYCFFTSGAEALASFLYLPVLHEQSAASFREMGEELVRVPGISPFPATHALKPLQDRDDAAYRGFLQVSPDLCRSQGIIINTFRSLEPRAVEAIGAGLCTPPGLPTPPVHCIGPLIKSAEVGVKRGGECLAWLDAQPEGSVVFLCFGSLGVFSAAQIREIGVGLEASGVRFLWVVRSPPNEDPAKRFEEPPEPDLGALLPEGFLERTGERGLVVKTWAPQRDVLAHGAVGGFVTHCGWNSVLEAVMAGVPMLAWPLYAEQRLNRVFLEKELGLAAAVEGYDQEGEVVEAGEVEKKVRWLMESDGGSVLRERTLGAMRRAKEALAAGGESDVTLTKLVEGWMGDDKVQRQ
Kind of series: LC-MS glucosyltransferase assay. It is filed as biochemical. The following applies: UDP-glucose as donor, Tris-HCl pH 7.5, 10 mM MgCl2, 37 °C; mainly 7-O-glucosylation.

Series [2] has as its target T2, UGT88C14 (KN9204 allele of TraesCS2B01G012000) (Triticum aestivum, UniProt Z9F0T2E170).
T2 construct: full-length natural allele from KN9204, StrepII-tagged, expressed in and purified from N. benthamiana
T2 sequence (Z9F0T2E170 1-489): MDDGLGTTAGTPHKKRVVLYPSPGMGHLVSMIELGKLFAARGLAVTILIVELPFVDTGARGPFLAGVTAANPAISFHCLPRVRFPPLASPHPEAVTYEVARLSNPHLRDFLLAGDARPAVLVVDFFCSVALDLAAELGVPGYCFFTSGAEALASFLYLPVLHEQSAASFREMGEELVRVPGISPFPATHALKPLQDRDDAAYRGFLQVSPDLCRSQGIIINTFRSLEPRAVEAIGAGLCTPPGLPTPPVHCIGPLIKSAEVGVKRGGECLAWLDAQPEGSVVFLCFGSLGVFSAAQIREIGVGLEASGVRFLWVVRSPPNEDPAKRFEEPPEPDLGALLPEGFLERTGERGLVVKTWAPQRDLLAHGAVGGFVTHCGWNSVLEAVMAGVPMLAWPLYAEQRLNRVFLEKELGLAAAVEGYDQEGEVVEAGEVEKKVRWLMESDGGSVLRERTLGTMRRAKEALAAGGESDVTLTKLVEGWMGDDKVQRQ
The series can be described thus: LC-MS glucosyltransferase assay. The class given is biochemical. The following applies: UDP-glucose as donor, Tris-HCl pH 7.5, 10 mM MgCl2, 37 °C; mainly 7-O-glucosylation.

Substrate in series [3]: O=c1c(O)c(-c2ccc(O)cc2)oc2cc(O)cc(O)c12
Kind of series: purified protein. The following applies: UDP-glucose as donor, Tris-HCl pH 7.5, 10 mM MgCl2, 37 °C, mainly 7-O-glucosylation.

Substrate in series [4]: O=c1cc(-c2ccc(O)cc2)oc2cc(O)cc(O)c12
The series can be described thus: purified protein. The settings on record: UDP-glucose as donor, Tris-HCl pH 7.5, 10 mM MgCl2, 37 °C, mainly 7-O-glucosylation.

Substrate in series [5]: O=c1cc(-c2ccc(O)c(O)c2)oc2cc(O)cc(O)c12
Kind of series: LC-MS glucosyltransferase assay. It is filed as biochemical, Triticum aestivum. The settings on record: UDP-glucose as donor, Tris-HCl pH 7.5, 10 mM MgCl2, 37 °C, mainly 7-O-glucosylation.

In general, Km refers to the concentration of substrate that gives half-maximal velocity. Regarding `O=c1c(O)c(-c2ccc(O)c(O)c2)oc2cc(O)cc(O)c12` [quercetin], the Km in series [1] was greater than 1000 µM.
In the case of `O=c1cc(-c2ccc(O)cc2)oc2cc(O)cc(O)c12` [apigenin], the Km in series [2] worked out at 21.8 ± 9.15 µM.

B1: UGT88C13 (TraesCS2B01G012000) (Triticum aestivum) (protein)
chain: MDDGLGTTAGTPHKKRVVLYPSPGMGHLVSMIELGKLFAARGLAVTILIVELPFVDTGARGPFLAGVTAANPAISFHCLPRVRFPPLASSHPEAVTYEVARLSNPHLRDFLLAGDARPAVLVVDFFCSVALDLAAELGVPGYCFFTSGAEALASFLYLPVLHEQSAASFREMGEELVRVPGISPFPATHALKPLQDRDDAAYRGFLQVSPDLCRSQGIIINTFRSLEPRAVEAIGAGLCTPPGLPTPPVHCIGPLIKSAEVGVKRGGECLAWLDAQPEGSVVFLCFGSLGVFSAAQIREIGVGLEASGVRFLWVVRSPPNEDPAKRFEEPPEPDLGALLPEGFLERTGERGLVVKTWAPQRDVLAHGAVGGFVTHCGWNSVLEAVMAGVPMLAWPLYAEQRLNRVFLEKELGLAAAVEGYDQEGEVVEAGEVEKKVRWLMESDGGSVLRERTLGAMRRAKEALAAGGESDVTLTKLVEGWMGDDKVQRQ
notes: also cloned in pGEX-6p-1 (GST)
As to B1, the values for the Km in series [3], in series [4] and in series [5] were 20.33 ± 5.75 µM, 19.47 ± 6.76 µM and 22.13 ± 6.54 µM, respectively.
